For one experiment, the target named is T1, nAra h 6 (peanut, UniProt Q647G9 22-145).
T1 construct: Bought natural allergen; also called naturally extracted Ara h 6
T1 sequence (looked up): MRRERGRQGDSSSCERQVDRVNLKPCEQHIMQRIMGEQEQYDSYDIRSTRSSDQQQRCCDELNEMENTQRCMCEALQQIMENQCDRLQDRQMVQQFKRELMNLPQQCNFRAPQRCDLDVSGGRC
In words: ELISA, antigen-coated plate. Here is the method: (§1) EC50 binding of exemplary anti-peanut antibodies of the present invention to peanut allergens or peanut extract, was determined by ELISA. Serial dilutions of MAbs (from 1000 ng/ml down to 0.0169 ng/ml) were incubated for 2 hours with antigen-coated plates (coating overnight at 4° C. or 1 h at 37° C. with 1 μg/ml antigen in PBS, followed by wash out and blocking with 2% BSA in PBS). The plates were subsequently washed and binding of MAbs was detected with anti-human HRP-conjugated Fc-gamma-specific secondary antibody (Jackson ImmunoResearch, West Grove, Pa., USA). Concentrations of MAb resulting in half of maximal binding to respective antigens (EC50, ng/ml) were calculated using GraphPad Prism 5 software on sigmoidal dose-response curves (variable slope, 4 parameters) obtained by plotting the log of the concentration versus OD450 nm measurements; for the results see FIG. 3 and table 2.

For another experiment, the target named is T2, nAra h 2 (peanut, UniProt Q6PSU2 22-172).
T2 construct: Bought natural allergen; also called naturally extracted Ara h 2
T2 sequence (looked up): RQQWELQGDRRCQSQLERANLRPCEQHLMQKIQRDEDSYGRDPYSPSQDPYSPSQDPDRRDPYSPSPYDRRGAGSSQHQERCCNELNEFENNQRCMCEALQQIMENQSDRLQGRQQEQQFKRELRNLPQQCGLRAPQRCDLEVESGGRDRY
The experiment is described as follows: ELISA, antigen-coated plate. How it is done: as §1
In general terms: In an ELISA, binding on a coated surface is turned into a signal by an enzyme label.

Another experiment has as its target T3, nBet v 1 (UniProt P15494 2-160).
T3 sequence (looked up): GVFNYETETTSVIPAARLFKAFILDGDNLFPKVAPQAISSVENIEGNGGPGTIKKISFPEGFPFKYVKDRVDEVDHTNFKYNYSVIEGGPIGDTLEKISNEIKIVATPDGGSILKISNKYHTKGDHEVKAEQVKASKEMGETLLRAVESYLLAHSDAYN
The experiment is described as follows: ELISA, antigen-coated plate. How it is done: as §1

The next experiment concerns the target T4, nAra h 1 (peanut, UniProt P43238 85-626).
T4 construct: Bought natural allergen; also called naturally extracted Ara h 1
T4 sequence (looked up): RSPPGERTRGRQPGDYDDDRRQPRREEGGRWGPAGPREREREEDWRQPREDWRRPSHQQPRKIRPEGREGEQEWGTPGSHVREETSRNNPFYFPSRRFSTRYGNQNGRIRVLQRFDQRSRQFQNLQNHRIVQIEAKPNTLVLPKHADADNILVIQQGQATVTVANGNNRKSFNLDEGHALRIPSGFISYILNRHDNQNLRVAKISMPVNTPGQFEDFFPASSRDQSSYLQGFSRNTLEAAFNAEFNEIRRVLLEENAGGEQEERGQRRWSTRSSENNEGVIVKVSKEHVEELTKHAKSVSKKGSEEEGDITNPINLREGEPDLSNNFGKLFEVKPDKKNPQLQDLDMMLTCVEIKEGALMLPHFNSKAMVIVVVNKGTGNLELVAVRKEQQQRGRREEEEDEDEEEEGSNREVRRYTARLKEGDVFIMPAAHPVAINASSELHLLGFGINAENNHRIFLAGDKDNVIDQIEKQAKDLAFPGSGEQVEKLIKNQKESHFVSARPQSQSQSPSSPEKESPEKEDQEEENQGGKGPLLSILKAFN
In words: ELISA, antigen-coated plate. How it is done:
as §1

The target of a further experiment is T5, Peptide 5 (peanut).
T5 construct: also called linear Ara h 2 peptide 5
T5 peptide: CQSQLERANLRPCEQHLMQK
In words: competition ELISA, peptide in solution vs coated Ara h 2. Here is the method:
(§2) A competition ELISA was used to evaluate binding of exemplary anti-peanut antibodies of the present invention to linear Ara h 2 epitopes. Serial dilutions of linear Ara h 2 epitopes (100 μM down to 0.19 nM; peptides with a length of 20 amino acids and an overlap of 12 amino acids between the peptides) were pre-incubated with exemplary anti-peanut antibodies ([…]) for 1 hour at room temperature. The pre-incubated antibody-epitope mixtures were subsequently incubated on plates coated with full length Ara h 2 (coating overnight at 4° C. with 0.05 μg/ml Ara h 2 in PBS, followed by wash out and blocking with 2% BSA in PBS). The plates were subsequently washed and binding of MAbs to Ara h 2 was detected HRP-conjugated goat anti human Fc-gamma-specific antibody (Jackson ImmunoResearch, West Grove, Pa., USA) followed by measurement of the HRP activity using a tetramethylbenzidine substrate solution (TMB, Sigma-Aldrich Chemie GmbH, Buchs, Switzerland). As may be seen from Table 5, exemplary anti-peanut allergen antibody 32B10 binds to different linear Ara h 2 epitopes than 12G10 and 37D5.

In a further experiment the target is T6, Peptide 20 (peanut).
T6 construct: also called linear Ara h 2 peptide 20
T6 peptide: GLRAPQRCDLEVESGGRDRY
The description is as above. How it is done: as §2

In the next experiment the target is T7, Peptide 9 (peanut).
T7 construct: also called linear Ara h 2 peptide 9
T7 peptide: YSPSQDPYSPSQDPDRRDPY
The description is as above. How it is done:
as §2

In a further experiment the target is T8, Peptide 12 (peanut).
T8 construct: also called linear Ara h 2 peptide 12
T8 peptide: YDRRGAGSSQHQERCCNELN
The experiment is described as above. Here is the method:
as §2

A further experiment concerns the target T9, Peptide 14 (peanut).
T9 construct: also called linear Ara h 2 peptide 14
T9 peptide: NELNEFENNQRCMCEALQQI
The experiment is described as above. How it is done: as §2

A further experiment deals with T10, Peptide 10 (peanut).
T10 construct: also called linear Ara h 2 peptide 10
T10 peptide: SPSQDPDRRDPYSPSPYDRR
The description is as above. How it is done:
as §2

A further experiment deals with T11, Peptide 16 (peanut).
T11 construct: also called linear Ara h 2 peptide 16
T11 peptide: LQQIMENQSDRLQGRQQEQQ
The description is as above. How it is done:
as §2

A further experiment has as its target T12, Peptide 1 (peanut).
T12 construct: 20-mer of Ara h 2, overlap of 12 with its neighbours; also called linear Ara h 2 peptide 1
T12 peptide: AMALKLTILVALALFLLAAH
The experiment is described as above. How it is done:
as §2

In another experiment the target is T13, Peptide 8 (peanut).
T13 construct: also called linear Ara h 2 peptide 8
T13 peptide: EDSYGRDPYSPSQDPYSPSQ
The description is as above. How it is done: as §2

Where a chain is given by its changes, count along the chain named.

B1: h4B2 (antibody, V domains shown)
VH: QVQLQEAGPRLVKPSQTLSVTCTVSGASITIGGYYWSWIRQHPGKGLEWMGYIYSNGRTYYNPSLKSRIAMSIDTSKNQFSLKLTSVTAADTAIYFCAREAWETPLWGQGTLITVSS
VL: DIQMTQSPSSLSASVGDRVTITCQANQDIVNSLNWFQHKPGTAPKVLIYDASKLETGVPSRFSGSGSGTHFTFTISGLQPEDFATYFCQQYENLPHTFGQGTKLEIR
notes: Recombinant human IgG; also called hMAb 4B2
Broadly, the EC50 is the concentration needed to bring the measured effect to its halfway point. Low values mean greater potency, high ones weaker potency. Turning to B1, the EC50 was 7 ng/mL with nAra h 6, 6.7 ng/mL with nAra h 2 and 5.9 ng/mL with nAra h 1. Also, the binding result with nBet v 1 is listed as “no binding (tested: 1000 ng/ml)”; with Peptide 5, “no binding (tested: 100 µM)”; with Peptide 20, “no binding (tested: 100 µM)”; with Peptide 9, “no binding (tested: 100 µM)”; with Peptide 12 it was “no binding (tested: 100 µM)”; with Peptide 14 it was “no binding (tested: 100 µM)”. Besides, the binding result in the experiment with Peptide 10, in the experiment with Peptide 16, with Peptide 1 and with Peptide 8 was “no binding (tested: 100 µM)” throughout.

B2: h32B10 (antibody, V domains shown)
VH: QVQLVQSGAEVKKPGASVKVSCRASGYIFRNFDINWVRQATGQGLEWMGWMSPKSGDTGYAQKFQGRVTMTRDTSINTAYMELSSLTSEDSAVYYCARGVDGTNWGQGTRVTVSS
VL: DIVMTQSPDSLGVSLGERATISCKSSQSILDNSNNKNFIAWFQQKPGQPPKLLIYWASARESGVPDRFSGSGSGTEFTLTINSLQAEDVAVYYCYQYYSTPHTFGQGTKLDLR
notes: Recombinant human IgG; also called hMAb 32B10
As for B2, the values for the EC50 with nAra h 6, with nAra h 2 and with nAra h 1 were 7 ng/mL, 9.2 ng/mL and 8.8 ng/mL, respectively. Further, the binding result with nBet v 1 is reported as “no binding (tested: 1000 ng/ml)”; with Peptide 5, “no binding (tested: 100 µM)”; with Peptide 20, “no binding (tested: 100 µM)”; in the experiment with Peptide 9, “no binding (tested: 100 µM)”; with Peptide 12, “no binding (tested: 100 µM)”; in the experiment with Peptide 14 it was “no binding (tested: 100 µM)”. Besides, the binding result with Peptide 10, with Peptide 16, with Peptide 1 and with Peptide 8 was “no binding (tested: 100 µM)” in each case.

B3: h12G10 (antibody, human IgG1, V domains shown)
VH: EVQLLESGGRLLRPGGSLSLSCVASGFYFGDFGMSWVRQVPGKGLEWVSGIDWSGRSTGYVDSMKGRLTISRDNDKSSLYLQMNDLRGEDTAVYYCARVGRLCSGDSCDSMGAFDLWGQGTMVTVSS
VL: DIQLTQSPSTLSASIGDSVTITCRASQNIDNWLAWYQQKPGKAPRLLIYKASSLGSGVSSKFRGSGFGTEFTLTITSLQPDDFATYYCQKSNGYSRTFGQGTKVDIK
notes: Recombinant human IgG; also called hMAb 12G10
As to B3, the EC50 in the experiment with nAra h 6 amounted to 17.2 ng/mL; with nAra h 2, 6.8 ng/mL; in the experiment with nAra h 1, 242 ng/mL. Also, the binding result is given as “no binding (tested: 1000 ng/ml)” with nBet v 1; “no binding (tested: 100 µM)” with Peptide 5; “no binding (tested: 100 µM)” in the experiment with Peptide 20; “binds” with Peptide 9; “no binding (tested: 100 µM)” in the experiment with Peptide 12; “no binding (tested: 100 µM)” with Peptide 14. Besides, the binding result is “binds” in the experiment with Peptide 10, “no binding (tested: 100 µM)” with Peptide 16, “no binding (tested: 100 µM)” in the experiment with Peptide 1 and “binds” with Peptide 8.

B4: h37D5 (antibody, V domains shown)
VH: EEQLVESGGRLLRPGESLSLSCAAVGFNFGDFGMAWVRQPPGKGLEWVAGINWSGHSTGFVDSMKGRLTISRDSAKSSLFLQMNSLRGEDTAVYYCARVGRLCSGDICDSMGAFDLWGQGTMVTVSS
VL: B3 VL with L4M, S18R, N28T, K39R, R45K, K50Q, G55Q, K61R, F67S, D105E
notes: Recombinant human IgG; also called hMAb 37D5
Turning to B4, the values for the EC50 with nAra h 6, with nAra h 2 and with nAra h 1 were 22.1 ng/mL, 5.6 ng/mL and 264 ng/mL, respectively. In addition, the binding result was “no binding (tested: 1000 ng/ml)” with nBet v 1; “no binding (tested: 100 µM)” in the experiment with Peptide 5; “no binding (tested: 100 µM)” with Peptide 20; “binds” with Peptide 9; “no binding (tested: 100 µM)” with Peptide 12; “no binding (tested: 100 µM)” with Peptide 14. Moreover, the binding result is given as “binds” with Peptide 10, “no binding (tested: 100 µM)” with Peptide 16, “no binding (tested: 100 µM)” with Peptide 1 and “binds” with Peptide 8.

Values taken from patent publication US20200199207A1 (MABYLON, published 2020).
